Average FRET efficiency and mean donor photobleaching decay constant (CFP with YFP; CFP alone 0.72) data for one substance are collected here from article PMC3204175.

The target in the assay is CALM_(2091)AF10 (human) (UniProt Q13492). Put plainly: FRET or BRET. (BRET reads energy transfer from a luciferase to a nearby fluorophore.)

The substance “CALM_(2091)AF10 (from UniProt Q13492 1-648)” showed an average FRET efficiency of 13% and a mean donor photobleaching decay constant (CFP with YFP; CFP alone 0.72) of 0.5.
